Legend:
[1] = molecular target: Mis12 complex (full length; MIS12, PMF1, NSL1, DSN1) (human) (UniProt Q9H081); assay: ITC
[2] = molecular target: Mis12 complex (full length; MIS12, PMF1, NSL1, DSN1) (human) (UniProt Q9H081); assay: BLI
[3] = molecular target: Mis12C/KNL1^2026-2342 complex (human) (UniProt Q9H081); assay: BLI
[4] = molecular target: Ndc80 complex (NDC80/HEC1, NUF2, SPC24, SPC25) (human, UniProt O14777 1-642; Q9BZD4 1-464; Q8NBT2 1-197; Q9HBM1 1-224); assay: BLI
[5] = molecular target: Mis12 complex mutant Mis12C^M3 (human) (UniProt Q9H081); assay: ITC
[6] = molecular target: Mis12 complex mutant Mis12C^M4 (human) (UniProt Q9H081); assay: ITC
[7] = molecular target: T1, DSN1 (subunit of the Mis12 complex in the KMN cryo-EM sample) (human, UniProt Q9H410 1-356); assay: cryo-EM structure
T1 sequence (looked up): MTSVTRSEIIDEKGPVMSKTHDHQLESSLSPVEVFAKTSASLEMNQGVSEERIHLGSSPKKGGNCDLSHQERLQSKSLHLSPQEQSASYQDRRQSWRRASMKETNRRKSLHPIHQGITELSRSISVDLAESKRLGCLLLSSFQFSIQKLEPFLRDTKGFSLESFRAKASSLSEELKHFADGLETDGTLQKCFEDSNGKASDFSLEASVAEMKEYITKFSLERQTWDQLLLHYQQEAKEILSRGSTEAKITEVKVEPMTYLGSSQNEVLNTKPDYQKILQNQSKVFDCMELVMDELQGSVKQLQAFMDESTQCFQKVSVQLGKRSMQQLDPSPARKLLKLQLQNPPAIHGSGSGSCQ

[8] = molecular target: T2, NSL1 (subunit of the Mis12 complex in the KMN cryo-EM sample) (human, UniProt Q96IY1 1-281); assay: cryo-EM structure
T2 sequence (looked up): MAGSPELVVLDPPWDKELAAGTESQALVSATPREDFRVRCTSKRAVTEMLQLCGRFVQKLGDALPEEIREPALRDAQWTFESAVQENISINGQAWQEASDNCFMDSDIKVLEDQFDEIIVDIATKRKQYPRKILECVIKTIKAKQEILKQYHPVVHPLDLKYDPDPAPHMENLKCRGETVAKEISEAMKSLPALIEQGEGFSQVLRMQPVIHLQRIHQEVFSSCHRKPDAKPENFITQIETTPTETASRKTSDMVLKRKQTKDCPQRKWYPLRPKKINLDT

SPC25 residues 92-224 = molecular target: T3, SPC25 residues 92-224 (human, UniProt Q9HBM1 92-224); assay: cryo-EM structure
T3 sequence (looked up): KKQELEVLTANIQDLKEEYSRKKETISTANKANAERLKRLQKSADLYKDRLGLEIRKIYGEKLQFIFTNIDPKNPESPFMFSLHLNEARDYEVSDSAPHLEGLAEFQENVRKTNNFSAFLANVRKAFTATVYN

Ndc80 complex (NDC80/HEC1, NUF2, SPC24, SPC25), sequence (O14777 whole entry, chain 1 of 2): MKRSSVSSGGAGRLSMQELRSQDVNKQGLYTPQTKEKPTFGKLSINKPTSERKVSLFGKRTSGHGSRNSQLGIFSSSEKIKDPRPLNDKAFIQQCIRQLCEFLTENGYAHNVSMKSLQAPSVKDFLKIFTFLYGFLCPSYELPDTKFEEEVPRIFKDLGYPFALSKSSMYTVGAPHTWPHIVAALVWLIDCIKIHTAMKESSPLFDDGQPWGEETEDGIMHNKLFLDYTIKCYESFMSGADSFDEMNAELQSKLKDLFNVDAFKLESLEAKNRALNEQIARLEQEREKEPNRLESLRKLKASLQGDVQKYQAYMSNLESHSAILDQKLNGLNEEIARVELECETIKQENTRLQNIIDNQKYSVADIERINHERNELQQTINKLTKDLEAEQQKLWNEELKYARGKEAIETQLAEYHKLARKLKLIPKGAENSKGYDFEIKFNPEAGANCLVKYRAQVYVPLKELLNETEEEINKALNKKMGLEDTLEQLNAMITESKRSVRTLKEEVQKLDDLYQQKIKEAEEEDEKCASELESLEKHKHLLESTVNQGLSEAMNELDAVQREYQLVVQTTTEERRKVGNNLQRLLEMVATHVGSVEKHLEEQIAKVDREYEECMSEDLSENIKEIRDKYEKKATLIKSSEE
Ndc80 complex (NDC80/HEC1, NUF2, SPC24, SPC25), sequence (Q9BZD4 whole entry, chain 2 of 2): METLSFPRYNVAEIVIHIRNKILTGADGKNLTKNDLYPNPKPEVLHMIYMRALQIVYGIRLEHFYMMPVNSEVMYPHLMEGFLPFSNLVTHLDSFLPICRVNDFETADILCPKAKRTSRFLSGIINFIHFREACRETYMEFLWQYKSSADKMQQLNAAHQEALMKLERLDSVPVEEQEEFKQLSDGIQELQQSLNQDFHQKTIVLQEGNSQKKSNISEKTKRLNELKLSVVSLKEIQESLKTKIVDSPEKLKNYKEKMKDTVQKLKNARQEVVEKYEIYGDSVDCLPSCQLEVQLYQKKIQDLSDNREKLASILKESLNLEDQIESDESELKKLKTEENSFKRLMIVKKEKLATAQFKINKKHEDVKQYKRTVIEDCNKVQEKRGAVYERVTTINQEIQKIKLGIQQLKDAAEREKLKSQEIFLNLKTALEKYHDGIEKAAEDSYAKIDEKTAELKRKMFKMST

KNL1 residues 2026-2342 (domain or fragment)
Kd [1]: 1.6 nM | Kd [2]: 2 nM

Ndc80 complex (NDC80/HEC1, NUF2, SPC24, SPC25) (from UniProt O14777 1-642; Q9BZD4 1-464; Q8NBT2 1-197; Q9HBM1 1-224)
Kd [3]: 1 nM | koff [3]: 0.0001 s⁻¹

B1: Mis12 complex (full length; MIS12, PMF1, NSL1, DSN1) (complex, human)
chain 1: MSVDPMTYEAQFFGFTPQTCMLRIYIAFQDYLFEVMQAVEQVILKKLDGIPDCDISPVQIRKCTEKFLCFMKGHFDNLFSKMEQLFLQLILRIPSNILLPEDKCKETPYSEEDFQHLQKEIEQLQEKYKTELCTKQALLAELEEQKIVQAKLKQTLTFFDELHNVGRDHGTSDFRESLVSLVQNSRKLQNIRDNVEKESKRLKIS
chain 2: MAEASSANLGSGCEEKRHEGSSSESVPPGTTISRVKLLDTMVDTFLQKLVAAGSYQRFTDCYKCFYQLQPAMTQQIYDKFIAQLQTSIREEISDIKEEGNLEAVLNALDKIVEEGKVRKEPAWRPSGIPEKDLHSVMAPYFLQQRDTLRRHVQKQEAENQQLADAVLAGRRQVEELQLQVQAQQQAWQALHREQRELVAVLREPE
chain 3: MAGSPELVVLDPPWDKELAAGTESQALVSATPREDFRVRCTSKRAVTEMLQLCGRFVQKLGDALPEEIREPALRDAQWTFESAVQENISINGQAWQEASDNCFMDSDIKVLEDQFDEIIVDIATKRKQYPRKILECVIKTIKAKQEILKQYHPVVHPLDLKYDPDPAPHMENLKCRGETVAKEISEAMKSLPALIEQGEGFSQVLRMQPVIHLQRIHQEVFSSCHRKPDAKPENFITQIETTPTETASRKTSDMVLKRKQTKDCPQRKWYPLRPKKINLDT
chain 4: MTSVTRSEIIDEKGPVMSKTHDHQLESSLSPVEVFAKTSASLEMNQGVSEERIHLGSSPKKGGNCDLSHQERLQSKSLHLSPQEQSASYQDRRQSWRRASMKETNRRKSLHPIHQGITELSRSISVDLAESKRLGCLLLSSFQFSIQKLEPFLRDTKGFSLESFRAKASSLSEELKHFADGLETDGTLQKCFEDSNGKASDFSLEASVAEMKEYITKFSLERQTWDQLLLHYQQEAKEILSRGSTEAKITEVKVEPMTYLGSSQNEVLNTKPDYQKILQNQSKVFDCMELVMDELQGSVKQLQAFMDESTQCFQKVSVQLGKRSMQQLDPSPARKLLKLQLQNPPAIHGSGSGSCQ
Kd [4]: ~6 nM | koff [4]: ~0.0001 s⁻¹

B2: SPC24^109-197/SPC25^92-224 dimer (complex, human)
chain 1: EELKEIEADLERQEKEVDEDTTVTIPSAVYVAQLYHQVSKIEWDYECEPGMVKGIHHGPSVAQPIHLDSTQLSRKFISDYLWSLVDTEW
chain 2: KKQELEVLTANIQDLKEEYSRKKETISTANKANAERLKRLQKSADLYKDRLGLEIRKIYGEKLQFIFTNIDPKNPESPFMFSLHLNEARDYEVSDSAPHLEGLAEFQENVRKTNNFSAFLANVRKAFTATVYN
fold reduction of the binding affinity against wild-type Mis12C [5]: 20 fold | fold reduction of the binding affinity against wild-type Mis12C [6]: 10 fold | binding result [7]: binds | binding result [8]: binds

B3: SPC24 residues 109-197 (domain or fragment, human, UniProt Q8NBT2 109-197, looked up)
chain: EELKEIEADLERQEKEVDEDTTVTIPSAVYVAQLYHQVSKIEWDYECEPGMVKGIHHGPSVAQPIHLDSTQLSRKFISDYLWSLVDTEW
binding result (SPC25 residues 92-224): binds

Reference: article doi:10.1101/2023.08.07.552315 (bioRxiv, 2023)
